IntAct's records for PubMed 11967127

B1: Disabled homolog 2 (Mus musculus), P98078 (parent)
chain: MSNEVETSTTNGQPDQQAAPKAPSKKEKKKGSEKTDEYLLARFKGDGVKYKAKLIGIDDVPDARGDKMSQDSMMKLKGMAAAGRSQGQHKQRIWVNISLSGIKIIDEKTGVIEHEHPVNKISFIARDVTDNRAFGYVCGGEGQHQFFAIKTGQQAEPLVVDLKDLFQVIYNVKKKEEDKKKVEEANKAEENGSEALMTLDDQANKLKLGVDQMDLFGDMSTPPDLNSPTESKDILLVDLNSEIDTNQNSLRENPFLTNGVTSCSLPRPKPQASFLPENAFSANLNFFPTPNPDPFRDDPFAQPDQSAPSSFDSLTSPDQKKASLSSSSTPQSKGPLNGDTDYFGQQFDQLSNRTGKPEAQGGPWPYPSSQTQQAVRTQNGVSEREQNGFHIKSSPNPFVGSPPKGLSVPNGVKQDLESSVQSSAHDSIAIIPPPQSTKPGRGRRTAKSSANDLLASDIFASEPPGQMSPTGQPAVPQSNFLDLFKGNAPAPVGPLVGLGTVPVTPPQAGPWTPVVYSPSTTVVPGAIISGQPPSFRQPLVFGTTPAVQVWNQSPSFATPASPPPPTVWCPTTSVAPNAWSSTSPLGNPFQSNNIFPPPTMSTQSSPQPMMSSVLATPPQPPPRNGPLKDIPSDAFTGLDPLGDKEVKEVKEMFKDFQLRQPPLVPSRKGETPPSGTSSAFSSYFNNKVGIPQEHVDHDDFDANQLLNKINEPPKPAPRQGVLLGTKSADNSLENPFSKGFSSSNPSVVSQPASSDPHRSPFGNPFA
B2: Disabled homolog 1 (Mus musculus), P97318 (parent)
chain: MSTETELQVAVKTSAKKDSRKKGQDRSEATLIKRFKGEGVRYKAKLIGIDEVSAARGDKLCQDSMMKLKGVVAGARSKGEHKQKIFLTISFGGIKIFDEKTGALQHHHAVHEISYIAKDITDHRAFGYVCGKEGNHRFVAIKTAQAAEPVILDLRDLFQLIYELKQREELEKKAQKDKQCEQAVYQTILEEDVEDPVYQYIVFEAGHEPIRDPETEENIYQVPTSQKKEGVYDVPKSQPNSQPLEDFESRFAAATPNRNLSMDFDELLEATKVSAVTQLELFGDMSTPPDITSPPTPATPGDAFLPSSSQTLPGSADVFGSMSFGTAAVPSGYVAMGAVLPSFWGQQPLVQQQIAMGAQPPVAQVIPGAQPIAWGQPGLFPATQQAWPTVAGQFPPAAFMPTQTVMPLAAAMFQGPLTPLATVPGTNDSARSSPQSDKPRQKMGKESFKDFQMVQPPPVPSRKPDQPSLTCTSEAFSSYFNKVGVAQDTDDCDDFDISQLNLTPVTSTTPSTNSPPTPAPRQSSPSKSSASHVSDPTADDIFEEGFESPSKSEEQEAPDGSQASSTSDPFGEPSGEPSGDNISPQDGS

Variants of: B1
Details: with myo6_chick MYO6, Q9I8D1
Target sequence in this assay (Q9I8D1 whole entry): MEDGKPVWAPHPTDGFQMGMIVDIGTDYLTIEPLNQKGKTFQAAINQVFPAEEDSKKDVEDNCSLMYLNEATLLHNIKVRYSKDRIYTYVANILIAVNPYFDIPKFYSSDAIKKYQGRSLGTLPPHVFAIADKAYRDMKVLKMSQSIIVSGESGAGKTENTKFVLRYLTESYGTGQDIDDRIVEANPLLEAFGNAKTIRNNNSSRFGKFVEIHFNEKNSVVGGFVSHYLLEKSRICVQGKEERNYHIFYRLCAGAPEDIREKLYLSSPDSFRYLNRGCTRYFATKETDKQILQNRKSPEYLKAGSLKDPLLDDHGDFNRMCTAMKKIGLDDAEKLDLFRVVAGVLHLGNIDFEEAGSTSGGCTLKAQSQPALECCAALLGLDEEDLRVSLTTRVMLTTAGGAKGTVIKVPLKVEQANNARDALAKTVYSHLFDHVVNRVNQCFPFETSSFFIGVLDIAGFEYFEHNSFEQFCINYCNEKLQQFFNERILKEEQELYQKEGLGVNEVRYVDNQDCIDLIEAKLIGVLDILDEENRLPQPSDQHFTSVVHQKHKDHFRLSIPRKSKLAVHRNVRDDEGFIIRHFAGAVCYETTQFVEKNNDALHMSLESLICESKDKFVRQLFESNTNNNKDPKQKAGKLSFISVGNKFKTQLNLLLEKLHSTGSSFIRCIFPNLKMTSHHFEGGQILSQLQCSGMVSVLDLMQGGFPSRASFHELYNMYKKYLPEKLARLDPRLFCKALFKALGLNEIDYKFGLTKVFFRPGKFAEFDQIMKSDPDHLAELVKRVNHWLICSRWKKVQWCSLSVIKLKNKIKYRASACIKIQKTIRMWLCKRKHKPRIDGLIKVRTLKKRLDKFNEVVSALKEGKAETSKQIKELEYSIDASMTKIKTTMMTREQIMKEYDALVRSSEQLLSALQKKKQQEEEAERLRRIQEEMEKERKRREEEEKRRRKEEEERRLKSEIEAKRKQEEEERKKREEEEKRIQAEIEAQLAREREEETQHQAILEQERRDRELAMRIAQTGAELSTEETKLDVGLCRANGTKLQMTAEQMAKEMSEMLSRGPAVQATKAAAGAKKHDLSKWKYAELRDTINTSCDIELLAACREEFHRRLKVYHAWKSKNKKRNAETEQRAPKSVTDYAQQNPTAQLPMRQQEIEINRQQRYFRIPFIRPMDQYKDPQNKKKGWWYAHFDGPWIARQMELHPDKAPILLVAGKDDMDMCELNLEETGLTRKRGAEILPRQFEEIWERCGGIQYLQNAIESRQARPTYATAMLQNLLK

Row | effect of a mutation on the interaction | Variant
1 | disrupting interaction | S682A;Y683A;F684A
2 | decreasing interaction | D699A;F700A;D701A

Variants of: B2
Details: with myo6_chick MYO6, Q9I8D1
Target sequence in this assay (Q9I8D1 whole entry): as above

Row | effect of a mutation on the interaction | Variant
3 | decreasing interaction | MSTETELQVAVKTSAKKDSRKKGQDRSEATLIKRFKGEGVRYKAKLIGIDEVSAARGDKLCQDSMMKLKGVVAGARSKGEHKQKIFLTISFGGIKIFDEKTGALQHHHAVHEISYIAKDITDHRAFGYVCGKEGNHRFVAIKTAQAAEPVILDLRDLFQLIYELKQREELEKKAQKDKQCEQAVYQTILEEDVEDPVYQYIVFEAGHEPIRDPETEENIYQVPTSQKKEGVYDVPKSQPNSQPLEDFESRFAAATPNRNLSMDFDELLEATKVSAVTQLELFGDMSTPPDITSPPTPATPGDAFLPSSSQTLPGSADVFGSMSFGTAAVPSGYVAMGAVLPSFWGQQPLVQQQIAMGAQPPVAQVIPGAQPIAWGQPGLFPATQQAWPTVAGQFPPAAFMPTQTVMPLAAAMFQGPLTPLATVPGTNDSARSSPQSDKPRQKMGKESFKDFQMVQPPPVPSRKPDQPSLTCTSEAFSAAANKVGVAQDTDDCDDFDISQLNLTPVTSTTPSTNSPPTPAPRQSSPSKSSASHVSDPTADDIFEEGFESPSKSEEQEAPDGSQASSTSDPFGEPSGEPSGDNISPQDGS [S478A;Y479A;F480A]
